One molecule from article PMC12667839 can be followed below.

The target in this data set is T1, GST-FOXL2-FHD (UniProt O88470 48-144).
T1 sequence: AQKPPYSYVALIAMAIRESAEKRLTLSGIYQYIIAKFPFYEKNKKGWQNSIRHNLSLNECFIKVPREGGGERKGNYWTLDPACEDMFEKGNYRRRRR
Kind of data set: EMSA. A general note: In EMSA bound probe runs differently from free probe, usually more slowly.

B1: Enh 3 wt (SBE/FBE1&2) (dsDNA)
DNA 1: GCCTTGATGTGTCTGGCTCAGAGCTGGCTAGAAGGCCAAGGCTATATGC
DNA 2: GCATATAGCCTTGGCCTTCTAGCCAGCTCTGAGCCAGACACATCAAGGC
For B1, the binding result is “no binding”.
